Source: a protein production outcome set (Wang et al. 2014)

Assay: label from the status in PepcDB records
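Note: failed if final PepcDB status was selected cloned or expressed and not failed if soluble or beyond.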

MKYTYKQIWLINFPVMMSILMEQLINITDAVFLGHVGEIELGASALAGIYYLAIYMLGFGFSIGLQVMIARRNGEQHYKETGRTFFQGLYFLMVMAIMLCLLIHLVSPFILQQLITSDEIYQAVIRYLNWRSFGLLFSFPFLAFRAFLVGVTNTKLLSGAALTAVCINIPFNYLLIFKLDMGISGAAMASSIAEFGAFLILLLYMCKTVDKKKYGLSAVYDGRLLMKLLQLSVWSMLHAFISVAPWFLFFVAIEHLGKTELAISNITRSVSTLFFVIVNSFASTTGSLVSNLIGGGQGKELFPVCRKVLRLGYVVGLPLILTALWGNQWIIGFYTNNDYLVKLAFWPFIVMLLNYVFALPGYVYINAVTGTGKTRLAFVFQLVTILIYLIYLYLLSECFHASLTVYMTAEYLFVILLGIQSILYLKRKSKQNMYFCTFND
protein production: failed

MRVFLCGPLASDGLRQRVLGSAPDGVPARLADHALGAAGATVSPMPAPGASVAGLVMELGAEAGARLLHYQTATGHEARTLAVAGAPALVFFAPPEGLEPWDEAAWGALWGPIVVATAGDVMALWPEVPAERIARRYRLMLVQGASRVRAAADPGPARRRHAAQPGDVRIVRRSQPYANFFAVEEYDLSFRSFGGGMSPTLNRAVFISGDAVTVVPYDPVRDRVLLIEQFRPGPLGRGDAQPWLLEPIAGRVDPGETPEAAARREAVEEAGLDLGALLPVASYYPTPAAKAEYLYSYVALAQLDDGIEGIFGMEGEGEDIRGHLMSFDEMMALIRSGEICNGPLLLTALWLDRERPRLRGE
protein production: failed

VADTDGHYRVRAITEISSFNETLGATFSDKEFDTIGGLVINKFGRLPKNGESITIEGFNFTVTRADSRRLHLLKVERIEPGVVEDADSHDSV
protein production: not failed

MASAHTTQTPFNRLLLTGAAGGLGKVLRETLRPYSHILRLSDIAEMAPAVGDHEEVQVCDLADKDAVHRLVEGVDAILHFGGVSVERPFEEILGANICGVFHIYEAARRHGVKRVIFASSNHVIGFYKQNETIDAHSPRRPDSYYGLSKSYGEDMASFYFDRYGIETVSIRIGSSFPEPQNRRMMSTWLSFDDLTRLLERALYTPDVGHTVVYGVSDNKTVWWDNRFASKLDYAPKDSSEVFRAKVDAQPMPADDDPAMVYQGGAFVASGPFGDK
protein production: failed

MSLDYDLLIKNGQTVNGMPVEIAIKEKKIAAVAATISGSAKETIHLEPGTYVSAGWIDDHVHCFEKMALYYDYPDEIGVKKGVTTVIDAGTTGAENIHEFYDLAQQAKTNVFGLVNISKWGIVAQDELADLSKVQASLVKKAIQELPDFVVGIKARMSRTVIGDNGITPLELAKQIQQENQEIPLMVHIGSAPPHLDEILALMEKGDVLTHCFNGKENGILDQATDKIKDFAWQAYNKGVVFDIGHGTDSFNFHVAETALREGMKAASISTDIYIRNRENGPVYDLATTMEKLRVVGYDWPEIIEKVTKAPAENFHLTQKGTLEIGKDADLTIFTIQAEEKTLTDSNGLTRVAKEQIRPIKTIIGGQIYDNEGHHHHHH
protein production: not failed

MGGKTKKHAMRLFDRIAEKYDLLNRILSFGMDTKWRKRVVELILEVNPEKVLDLATGTGDVARLLKRKAPHLEITGLDSSSKMLEIAEKRLKDGEFIVGDAHNLPFYDRSFDAITVAFGFRNFSDRRRVLRECRRVLKRKGRLVILELLPPNTKRFTGKIYSFYLKTWVPFVGGLFSGDFHAYRYLSTSVLNFLTPDQIVEMMKEEGFEVSFEPLFFSVAGIFIGDLIWLEHHHHHH
protein production: failed

SPFDTGPELESQIRNQYGVDVHVVPVLDTLNEAETLDRVAMQAARTIGPLVDSNAIIGVAWGATLSAVSRHLTRKMTHDSIVVQLNGAGNMQTTGITYASDIMRRFGSAYGARVEQFPVPAFFDHASTKTAMWNERSVQRILDLQARMSIAIFGVGSVDSDYPSHVYAGGYLDEHDLTMLAADDVVGDVATVFFRSDGSSDGITLNERSTGPSHEQLRQVRRRICVVSGASKINGLQGALAAGLATDLILDEASARRLVSFNGH
protein production: not failed

MIITIPIKNQKDIGTPSDSVVVLGYFDGIHKGHQELFRVANKAARKDLLPIVVMTFNESPKIALEPYHPDLFLHILNPAERERKLKREGVEELYLLDFSSQFASLTAQEFFATYIKAMNAKIIVAGFDYTFGSDKKTAEDLKNYFDGEVIIVPPVEDEKGKISSTRIRQAILDGNVKEAGKLLGAPLPSRGMVVHGNARGRTIGYPTANLVLLDRTYMPADGVYVVDVEIQRQKYRAMASVGKNVTFDGEEARFEVNIFDFNQDIYGETVMVYWLDRIRDMTKFDSVDQLVDQLKADEEVTRNWS
protein production: not failed

MQYIFSIISGIIVGFSLGLIGGGGSILAIPLLIYFVGIKNPHLVIGTTALAVGINALINVYSHLRKKNVSLRTGAIFTVFGILGVLLGTTLGLITPGGKLLFLFSFLMIVIGAYMFITKCKTCKNYDAIPKKNNNDDPPDPPKKGLWQKIKLEVFGVLAGFASGYFGIGGGFLIVPALLYSADITMNLAVGTSLMSVGTFGLVTALRYGIAGKVLVTIALLYVLGGIFGGYAGAKLSSSMKRSTLRRFFSLIIIVVGIYMAIESFSAVF
protein production: failed

MSGLDPARSILQGSAEGPVIATGEALSFWGGVDPATGCVIDVHHPLHGVPLTGSILMMPSSRGSCTGSGVLLDLVLTGRGPAALVFSEPEDVLTLGALIASEMFGKPLPVL
protein production: failed

MESVTFEDVAVEFIQEWALLDSARRSLCKYRMLDQCRTLASRGTPPCKPSCVSQLGQRAEPKATERGILRATGVAWESQLKPEELPSMQDLLEEASSRDMQMGPGLFLRMQLVPSIEERETPLTREDRPALQEPPWSLGCTLPLLSLLLPSCPEPPLVLLDSSSAPDRHLGSTLDTEARGIP
protein production: failed

MVFPSEQEQIEKFEKDHVAQHYFEVLRTLISKKSVFAQQVGLKEVANYLGEIFKRVGAEVEIDESYTAPFVMAHFKSSRPDAKTLIFYNHYDTVPADGDQVWTEDPFTLSVRNGFMYGRGVDDDKGHITARLSALRKYMQHHDDLPVNISFIMEGAEESASTDLDKYLEKHADKLRGADLLVWEQGTKNALEQLEISGGNKGIVTFDAKVKSADVDIHSSYGGVVESAPWYLLQALQSLRAADGRILVEGLYEEVQEPNEREMALLETYGQRNPEEVSRIYGLELPLLQEERMAFLKRFFFDPALNIEGIQSGYQGQGVKTILPAEASAKLEVRLVPGLEPHDVLEKIRKQLDKNGFDKVELYYTLGEMSYRSDMSAPAILNVIELAKKFYPQGVSVLPTTAGTGPMHTVFDALEVPMVAFGLGNANSRDHGGDENVRIADYYTHIELVEELIRSYE
protein production: not failed

MKTKLMTLQDATGFFRDGMTIMVGGFMGIGTPSRLVEALLESGVRDLTLIANDTAFVDTGIGPLIVNGRVRKVIASHIGTNPETGRRMISGEMDVVLVPQGTLIEQIRCGGAGLGGFLTPTGVGTVVEEGKQTLTLDGKTWLLERPLRADLALIRAHRCDTLGNLTYQLSARNFNPLIALAADITLVEPDELVETGELQPDHIVTPGAVIDHIIVSQESK
protein production: not failed

MNYPLTLEMDLENLEDLFWELDRLDNYNDTSLVENHLCPATEGPLMASFKAVFVPVAYSLIFLLGVIGNVLVLVILERHRQTRSSTETFLFHLAVADLLLVFILPFAVAEGSVGWVLGTFLCKTVIALHKVNFYCSSLLLACIAVDRYLAIVHAVHAYRHRRLLSIHITCGTIWLVGFLLALPEILFAKVSQGHHNNSLPRCTFSQENQAETHAWFTSRFLYHVAGFLLPMLVMGWCYVGVVHRLRQAQRRPQRQKAVRVAILVTSIFFLCWSPYHIVIFLDTLARLKAVDNTCKLNGSLPVAITMCEFLGLAHCCLNPMLYTFAGVKFRSDLSRLLTKLGCTGPASLCQLFPSWRRSSLSESENATSLTTF
protein production: failed

MLAQKNTNKKPFGNTLTNILCKDKKKKNLDPQISSLVSLVDNMDITQEKKDKIKNLSLKYINSRDVKEKNESINELQKYSNNEECKEQMDSYLMHLRMQNDIKCLKRKNLWNNIGINSITLSLIIIMIMIACMFAIYSTAQYIYVPASFLLIFIIYIVARYFPDMKIGFKKLKTKLNTFFQNKKQITK
protein production: failed

MFMAENRLQLQKGSAEETIERFYNRQGIETIEGFQQMFVTKTLNTEDTDEVKILTIWESEDSFNNWLNSDVFKEAHKNVRLKSDDDGQQSPILSNKVFKYDIGYHYQK
protein production: not failed

MKKEKIHLEYLLNATSKNILWSAISTPTGLEDWFADKVVSDDKTVTFCWGKTEQRQAGIVAIRAYSFIRFHWLDDENERDYFEIKMSYNELTGDYVLEITDFSEADEADDLKELWDSQVSKLRRTCGFLEHHHHHH
protein production: not failed
